Where “and” joins values, the source holds several entries; their conditions need not be identical. Identical values can stand only once.
Experiments:
[1] = test system: DLL4; experiment: DLL4 mRNA in eCIRP-treated BMDNs, qPCR; assay type: cell-based, mouse; conditions: for DLL4 mRNA: DLL4-CIRP
Method: mRNA was extracted from lung tissues with TRIzol reagent (Invitrogen, Thermo Fisher Scientific). An equal amount ([…]) of mRNA was reverse-transcribed into cDNA using the reverse transcriptase enzyme (Invitrogen, Thermo Fisher Scientific). qPCR was performed from the diluted cDNA templates with forward and reverse primers (Supplemental Table 4) and SYBR Green PCR Master Mix (Applied Biosystems, Thermo Fisher Scientific) using an Applied Biosystems 7300 real-time PCR machine. Mouse β-actin served as an internal control gene for normalization. Relative expression of mRNA was represented as fold change in comparison with the sham group.
BMDNs (1 × 10^6) were treated with eCIRP (1 μg/mL) for 12 hours, and DLL1, DLL3, and DLL4 were analyzed by qPCR.

[2] = test system: DLL4 expression on TLR4^–/– BMDNs; experiment: Frequency of DLL4^+ neutrophils, TLR4^–/– mouse BMDNs, flow cytometry; assay type: cell-based; conditions: 12 h
Method: Male 8-week-old C57BL/6 mice were purchased from Charles River Laboratories. TLR4^–/– mice were obtained from Kevin Tracey (Feinstein Institutes for Medical Research). Mice were housed at approximately 23°C with a 12-hour light/12-hour dark cycle and given standard laboratory food and water ad libitum. All experiments were performed following the NIH guidelines for experimental animals. The animal protocol was approved by the Feinstein Institutes’ Institutional Animal Care and Use Committee. Animals were randomly assigned to the sham, vehicle, or adoptive transfer groups.
Mice were anesthetized by 2% isoflurane inhalation, and the femora and tibiae were dissected. […] The purity of the sorted neutrophils was assessed by staining of the cells with APC-Ly6G antibody (clone 1A8, BioLegend) using a BD LSRFortessa flow cytometer (BD Biosciences).
In the time course experiments, BMDNs (1 × 10^6) were stimulated with eCIRP (1 μg/mL) for 2, 4, 6, and 12 hours. […] Single-cell suspensions were then stained with APC-conjugated anti–mouse Ly6G (clone 1A8, catalog 127614, BioLegend) and PE-conjugated anti-DLL4 (clone HMD4-1, catalog 130807, BioLegend), and analyzed by flow cytometry (BD LSRFortessa, BD Biosciences) to detect DLL4^+ neutrophils (Ly6G^+DLL4^+). […] The isolated lung cells were counted using a microscope (Eclipse TS100, Nikon). […]

B1: eCIRP: extracellular cold-inducible RNA-binding protein; recombinant murine, produced in our laboratory (protein, UniProt P60824 1-172, looked up)
Cold-inducible RNA-binding …: MASDEGKLFVGGLSFDTNEQALEQVFSKYGQISEVVVVKDRETQRSRGFGFVTFENIDDAKDAMMAMNGKSVDGRQIRVDQAGKSSDNRSRGYRGGSAGGRGFFRGGRSRGRGFSRGGGDRGYGGGRFESRSGGYGGSRDYYASRSQGGSYGYRSSGGSYRDSYDSYATHNE
effect on DLL4 expression ([1]; BMDNs, eCIRP 1 μg/mL, 12 h): selectively upregulated DLL4
DLL4 mRNA ([1]; replicate 1): 2.784
DLL4 mRNA ([1]; replicate 2): 1.987
DLL4 mRNA ([1]; replicate 3): 1.949
DLL4 mRNA ([1]; replicate 4): 2.578
DLL4 mRNA ([1]; replicate 5): 2.145
DLL4 mRNA ([1]; replicate 6): 5.912
DLL4 mRNA ([1]; replicate 7): 4.801
DLL4 mRNA ([1]; replicate 8): 3.122
frequency of DLL4^+ neutrophils (Figure 1E) ([2]; TLR4^–/– (KO) BMDNs, 1 μg/mL eCIRP, individual replicates): 1.63% and 1.97% and 2.11% and 0.98% and 0.25% and 1.21%
eCIRP-mediated induction of DLL4^+ neutrophils ([2]; TLR4^–/– neutrophils, 1 μg/mL): significantly abrogated in TLR4^–/– neutrophils
